We go through 1 protein from paper PMC4254994 (PLoS ONE, 2014).

This data set deals with the molecule itself. Put plainly: SEC. A general note: In gel filtration, larger molecules generally elute earlier.

B1: Bacterial proteasome activator Bpa (Rv3780) of Mycobacterium tuberculosis (natural protein)
chain: MVIGLSTGSDDDDVEVIGGVDPRLIAVQENDSDESSLTDLVEQPAKVMRIGTMIKQLLEEVRAAPLDEASRNRLRDIHATSIRELEDGLAPELREELDRLTLPFNEDAVPSDAELRIAQAQLVGWLEGLFHGIQTALFAQQMAARAQLQQMRQGALPPGVGKSGQHGHGTGQYL
By stoichiometry N is commonly meant a count of units in the complex or per binding partner. On to B1, for which the “stoichiometry N” value is roughly 6.
